{"source": "paper PMC12095755", "about": "(Nature Communications, 2025)", "target": "human MDM2 (Homo sapiens, UniProt Q00987)", "sequence (Q00987 whole entry)": "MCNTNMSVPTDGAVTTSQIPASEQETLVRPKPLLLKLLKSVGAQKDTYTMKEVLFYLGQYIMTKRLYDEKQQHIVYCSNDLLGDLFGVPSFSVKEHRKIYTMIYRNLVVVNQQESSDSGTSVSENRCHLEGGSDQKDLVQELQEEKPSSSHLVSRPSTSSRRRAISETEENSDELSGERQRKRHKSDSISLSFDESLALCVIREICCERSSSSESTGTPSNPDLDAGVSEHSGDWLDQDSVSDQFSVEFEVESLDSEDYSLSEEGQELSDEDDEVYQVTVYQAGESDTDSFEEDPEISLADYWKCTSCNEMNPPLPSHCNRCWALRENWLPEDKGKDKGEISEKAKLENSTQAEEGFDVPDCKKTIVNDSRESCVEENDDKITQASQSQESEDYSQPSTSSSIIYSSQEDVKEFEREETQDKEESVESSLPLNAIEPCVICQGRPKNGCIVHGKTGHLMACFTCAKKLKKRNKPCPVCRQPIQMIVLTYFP", "experiment": "MDM2 AlphaLISA competition assay", "type": "binding", "details": "up to 50 µM", "data": [{"substance": "F-S-D-L-W (FSDLW) [p53 motif]", "values": [{"measurement": "activity in the AlphaLISA assay", "result": "no activity"}]}]}
